Measured values as given in publication PMC10924156, “Design, Preclinical Evaluation, and Clinical Translation of ^68Ga-FAPI-LM3, a Heterobivalent Molecule for PET Imaging of Nasopharyngeal Carcinoma” (Journal of Nuclear Medicine, 2024).
Read-outs that look alike come from different tables or passages of the source. Starred links: 1 amine or outer side, 2 acyl side, 3 side chain; linkers in the order of their positions; H or OH if unused. Positions of bridges follow the written chain, without caps; N, C: chain ends. Non-standard residues stand in square brackets, D forms with d. Residues, ends and D or L forms follow the SMILES beside them. *: point of attachment. X1 = CN(CCCN1CCN(*)CC1)c1ccc2nccc(C(=O)NCC(=O)N3CC(F)(F)C[C@H]3C#N)c2c1; DOTA = O=C(O)CN1CCN(CC(=O)O)CCN(CC(=O)*)CCN(CC(=O)O)CC1; dPhe(4-NHCONH2) = NC(=O)Nc1ccc(C[C@@H](N)C(=O)O)cc1; Phe(4-Cl) = N[C@@H](Cc1ccc(Cl)cc1)C(=O)O; Suc = O=C(CCC(=O)[*:2])[*:1]; AEEEA = NCCOCCOCCOCC(=O)O

How the values were obtained:
SSTR2 [1] = target: T1, SSTR2 (Homo sapiens, UniProt P30874); experiment: SSTR2 receptor binding assay on HT-1080-SSTR2 cells; conditions: read-out: half-maximal inhibitory concentration, SSTR2 binding
T1 construct: expressed in transfected cells
T1 sequence (P30874 whole entry): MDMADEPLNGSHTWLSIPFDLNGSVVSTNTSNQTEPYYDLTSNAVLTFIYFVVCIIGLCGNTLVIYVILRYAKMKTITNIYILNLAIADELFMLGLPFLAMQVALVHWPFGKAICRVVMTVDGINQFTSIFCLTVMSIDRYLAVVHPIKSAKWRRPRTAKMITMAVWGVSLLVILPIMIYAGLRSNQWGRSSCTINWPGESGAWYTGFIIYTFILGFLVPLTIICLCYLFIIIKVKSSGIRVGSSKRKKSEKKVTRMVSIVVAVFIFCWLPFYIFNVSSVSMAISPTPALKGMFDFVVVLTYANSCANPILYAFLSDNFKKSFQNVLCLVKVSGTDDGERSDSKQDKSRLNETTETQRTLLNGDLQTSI
Protocol: (§1) Information on cell resources, transfection, and culture is provided in the supplemental materials. For in vitro studies, the cells were seeded in 24-well plates and cultured in a routine medium until they reached approximately 80% confluence. During the experiment, the medium was replaced with a fetal bovine serum–free medium. […] After a 60-min incubation period, the free tracer was removed using phosphate-buffered saline before measurement. The cells were lysed with 0.5 mL of 1 M NaOH, and radioactivity was subsequently gauged using a γ-counter (Wizard 2480; PerkinElmer Inc.).

human FAP = target: T2, human FAP (Homo sapiens, UniProt Q12884); experiment: FAP radioligand binding assay on HT-1080-FAP cells; conditions: read-out: half-maximal inhibitory concentration, FAP binding
T2 construct: expressed in transfected cells
T2 sequence (Q12884 1-760): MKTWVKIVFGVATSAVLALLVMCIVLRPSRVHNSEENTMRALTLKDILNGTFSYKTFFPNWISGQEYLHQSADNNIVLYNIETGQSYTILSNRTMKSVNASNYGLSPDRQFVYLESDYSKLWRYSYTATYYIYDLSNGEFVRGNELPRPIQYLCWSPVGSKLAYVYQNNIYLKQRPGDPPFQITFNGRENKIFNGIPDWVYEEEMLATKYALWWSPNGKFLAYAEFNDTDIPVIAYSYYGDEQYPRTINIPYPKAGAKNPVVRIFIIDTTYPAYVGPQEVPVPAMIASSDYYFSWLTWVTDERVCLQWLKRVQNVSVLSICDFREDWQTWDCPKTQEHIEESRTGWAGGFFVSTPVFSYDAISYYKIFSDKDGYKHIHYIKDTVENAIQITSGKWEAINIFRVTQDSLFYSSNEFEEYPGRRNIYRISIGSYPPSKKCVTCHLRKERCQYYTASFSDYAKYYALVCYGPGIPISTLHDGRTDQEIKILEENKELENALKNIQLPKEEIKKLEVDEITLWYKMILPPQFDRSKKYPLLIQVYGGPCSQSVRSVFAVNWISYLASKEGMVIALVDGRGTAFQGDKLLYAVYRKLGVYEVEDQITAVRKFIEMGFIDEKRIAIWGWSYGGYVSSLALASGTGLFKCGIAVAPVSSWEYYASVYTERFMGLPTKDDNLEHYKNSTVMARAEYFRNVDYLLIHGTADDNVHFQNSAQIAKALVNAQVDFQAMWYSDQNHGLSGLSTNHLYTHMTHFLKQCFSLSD
Protocol: as §1

[2] = tested on: nasopharyngeal carcinoma lesions; conditions: human, in vivo
in vitro = in vitro ADME, bovine; conditions: serum
Protocol: Information regarding the reagents, chemicals, high-performance liquid chromatography, liquid chromatography–mass spectrometry, and flow diagram of the synthesis of FAPI-LM3 are provided in the supplemental materials (available at http://jnm.snmjournals.org ([16])). The radiolabeling of FAPI-46, DOTA-LM3, and FAPI-LM3 precursors with ^68Ga was performed following similar procedures. In brief, 25 nmol of the precursor in 1 mL of sodium acetate buffer (0.25 M, pH 8.2–8.3) was allowed to react with 4 mL of ^68Ga solution (1.3 GBq in 0.6 M HCl) at 100°C for 15 min. For clinical imaging, the final product was passed through a 0.22-μm Millipore filter for sterilization in each ^68Ga-FAPI-LM3 preparation process. The stability of ^68Ga-FAPI-LM3 was determined by incubating the product in phosphate-buffered saline and fetal bovine serum at 37°C and analyzing it via radio–high-performance liquid chromatography after 1 and 2 h of incubation.

in vivo [3] = conditions: BALB/c nude, mouse, 1.48 MBq, total radioactivity
Protocol: (§2) Tumor-bearing mice (3/group) were intravenously injected with approximately 7.4 MBq of ^68Ga-FAPI-LM3, ^68Ga-FAPI-46, or ^68Ga-DOTA-LM3. Subsequent static PET scans were obtained at intervals of 0.5, 1, 2, and 4 h after injection using an Inveon small-animal PET scanner (Siemens). In the blocking experiment, approximately 60 nmol of the unlabeled precursor (FAPI-46, DOTA-LM3, or FAPI-46 plus DOTA-LM3) were simultaneously injected with ^68Ga-FAPI-LM3. The PET images were reconstructed iteratively using 3-dimensional OpMAP 256 (PET reconstruction protocol [.pPetRcn]; Siemens Healthineers AG) and converted to percentage injected dose per gram of tissue (%ID/g) by delineating the regions of interest. For the biodistribution studies, approximately 1.48 MBq of ^68Ga-FAPI-LM3, ^68Ga-FAPI-46, ^68Ga-DOTA-LM3, or ^68Ga-FAPI-LM3 with unlabeled precursor were injected into tumor-bearing mice (3/group), and different groups of mice were euthanized at the scheduled time points after injection.

[4] = human, in vivo
clinical = conditions: human, in vivo, total radioactivity; for SUV: Median SUVmax; for SUV at 1 h: SUVmax
in vivo [5] = conditions: BALB/c nude, mouse, iv, 7.4 MBq, total radioactivity, tumor uptake (PET)
Protocol: as §2

[6] = tested on: HT-1080-FAP–plus–HT-1080-SSTR2 tumor xenograft; experiment: Small-animal PET imaging; conditions: 1 h after injection
Protocol: as §2

[7] = tested on: HT-1080-FAP, HT-1080-SSTR2, HT-1080-FAP–plus–HT-1080-SSTR2, C666-1, U87MG cells; experiment: Cellular uptake test and blocking experiments; format: cell-based, human; conditions: 60 min, with 10 nmol unlabeled FAPI-46, DOTA-LM3 or both; all P < 0.05
Protocol: as §1

[8] = tested on: HT-1080-FAP–plus–HT-1080-SSTR2 xenografts; conditions: mouse
Protocol: as §2

SSTR2 [9] = conditions: cited from earlier work
From the text: Within the domain of nuclear medicine, several targets, such as somatostatin receptor 2 (SSTR2), prostate-specific membrane antigen, and FAP, have emerged as prominent subjects of research ([7],[8]). Epstein–Barr virus latent membrane protein 1 can upregulate SSTR2 expression via the NF-κB pathway ([9]). Both FAP and SSTR2 are important markers in the biology of NPC, as evidenced by the plethora of such PET radiopharmaceuticals, including ^68Ga-FAPI for imaging cancer-associated fibroblasts and ^68Ga-DOTATATE for imaging SSTR2 ([10],[11]).

In the case of C[C@@H](O)[C@@H]1NC(=O)[C@H](CCCCN)NC(=O)[C@@H](Cc2ccc(NC(N)=O)cc2)NC(=O)[C@H](Cc2ccc(O)cc2)NC(=O)[C@H](NC(=O)[C@H](Cc2ccc(Cl)cc2)NC(=O)CN2CCN(CC(=O)O)CCN(CC(=O)O)CCN(CC(=O)O)CC2)CSSC[C@@H](C(=O)N[C@H](Cc2ccc(O)cc2)C(N)=O)NC1=O [DOTA-LM3, reference compound] ({DOTA}-[Phe(4-Cl)][dC]Y[dPhe(4-NHCONH2)]KTC[dY]-NH2; disulfide 2-7), the IC50 (SSTR2 [1]) is reported as 1.3 nM.

CN(CCCN1CCN(C(=O)CN2CCN(CC(=O)O)CCN(CC(=O)O)CCN(CC(=O)O)CC2)CC1)c1ccc2nccc(C(=O)NCC(=O)N3CC(F)(F)C[C@H]3C#N)c2c1 [FAPI-46, reference compound] gave an IC50 (human FAP; HT-1080-FAP cells, radioligand 68Ga-FAPI-46, 60 min incubation, 8.16 × 10^−5 to 10^−13 M, n = 3) of 4.39 nM.

C[C@@H](O)[C@@H]1NC(=O)[C@H](CCCCN)NC(=O)[C@@H](Cc2ccc(NC(N)=O)cc2)NC(=O)[C@H](Cc2ccc(O)cc2)NC(=O)[C@H](NC(=O)[C@H](Cc2ccc(Cl)cc2)NC(=O)[C@H](CCCCNC(=O)CN2CCN(CC(=O)O)CCN(CC(=O)O)CCN(CC(=O)O)CC2)NC(=O)CCC(=O)NCCOCCOCCOCC(=O)N2CCN(CCCN(C)c3ccc4nccc(C(=O)NCC(=O)N5CC(F)(F)C[C@H]5C#N)c4c3)CC2)CSSC[C@@H](C(=O)N[C@H](Cc2ccc(O)cc2)C(N)=O)NC1=O [FAPI-LM3] ({X1-AEEEA-Suc}-K(DOTA)[Phe(4-Cl)][dC]Y[dPhe(4-NHCONH2)]KTC[dY]-NH2; disulfide 3-8) gave an IC50 (SSTR2 [1]) of 13.2 nM and an IC50 (human FAP) of 11.7 nM.

For OC[C@H]1OC(O)[C@H]([18F])[C@@H](O)[C@@H]1O (stereo partly shown) [^18F-FDG], the “Median SUVmax, Distant LN mets” value [2] was 8.2 (2.0–9.0), the “Median SUVmax, Peritoneal mets” value [2] was 3.4 (1.5–8.6) and the “Median SUVmax, Pleural mets” value [2] was 7.2 (3.7–12.0).

For C[C@@H](O)[C@@H]1NC(=O)[C@H](CCCCN)NC(=O)[C@@H](Cc2ccc(NC(N)=O)cc2)NC(=O)[C@H](Cc2ccc(O)cc2)NC(=O)[C@H](NC(=O)[C@H](Cc2ccc(Cl)cc2)NC(=O)[C@H](CCCCNC(=O)CN2CCN(CC(=O)O)CCN(CC(=O)O)CCN(CC(=O)O)CC2)NC(=O)CCC(=O)NCCOCCOCCOCC(=O)N2CCN(CCCN(C)c3ccc4nccc(C(=O)NCC(=O)N5CC(F)(F)C[C@H]5C#N)c4c3)CC2)CSSC[C@@H](C(=O)N[C@H](Cc2ccc(O)cc2)C(N)=O)NC1=O [^68Ga-FAPI-LM3, metal not drawn] ({X1-AEEEA-Suc}-K(DOTA)[Phe(4-Cl)][dC]Y[dPhe(4-NHCONH2)]KTC[dY]-NH2; disulfide 3-8), the “physiologic uptake in normal organs” value [2] was “intense physiologic uptake”, the remaining at 2 h (in vitro) was greater than 99% and the tissue uptake at 1 h (in vivo [3]) was 14.8 ± 0.76 %ID/g. The tissue uptake at 4 h (in vivo [3]) was 17.7 ± 2.46 %ID/g, the “Effective dose equivalent, Mean” value [4] was 1.20E–03 mSv/MBq and the “dosimetry, Adrenal glands, Mean” value [4] was 5.98E–05 mSv/MBq. The “dosimetry, Brain, Mean” value [4] was 1.63E–06 mSv/MBq, the “dosimetry, Breasts, Mean” value [4] was 3.47E–05 mSv/MBq and the “dosimetry, Kidneys, Mean” value [4] was 1.08E–04 mSv/MBq. The “dosimetry, LLI wall (lower large intestine), Mean” value [4] was 4.34E–04 mSv/MBq, the “dosimetry, Liver, Mean” value [4] was 1.28E–03 mSv/MBq and the “dosimetry, Lungs, Mean” value [4] was 7.68E–04 mSv/MBq. The “dosimetry, Muscle, Mean” value [4] was 1.57E–05 mSv/MBq, the “dosimetry, Osteogenic cells, Mean” value [4] was 4.22E–05 mSv/MBq and the “dosimetry, Ovaries, Mean” value [4] was 3.66E–04 mSv/MBq. For the same molecule, the “dosimetry, Pancreas, Mean” value [4] was 1.23E–04 mSv/MBq, the “dosimetry, Red marrow, Mean” value [4] was 7.62E–04 mSv/MBq and the “dosimetry, Skin, Mean” value [4] was 6.29E–06 mSv/MBq. For the same molecule, the “dosimetry, Small intestine, Mean” value [4] was 2.71E–05 mSv/MBq, the “dosimetry, Spleen, Mean” value [4] was 1.23E–04 mSv/MBq and the “dosimetry, Stomach wall, Mean” value [4] was 4.04E–04 mSv/MBq. The “dosimetry, Thyroid, Mean” value [4] was 3.68E–06 mSv/MBq, the “dosimetry, ULI wall (upper large intestine), Mean” value [4] was 1.53E–05 mSv/MBq and the “dosimetry, Urinary bladder wall, Mean” value [4] was 2.14E–03 mSv/MBq. The “dosimetry, Uterus, Mean” value [4] was 2.19E–04 mSv/MBq, the SUV (clinical; Bone mets) was 11.2 SUV and the SUV (clinical; Distant LN mets) was 16.9 SUV. For the same molecule, the SUV (clinical; Liver mets) was 16.5 SUV, the SUV (clinical; Peritoneal mets) was 13.1 SUV and the SUV (clinical; Pleural mets) was 17.3 SUV. It also gave an SUV (clinical; Primary) of 13.8 SUV, an SUV (clinical; Regional LN mets) of 11.4 SUV and an SUV (clinical; Total distant metastases) of 14.6 SUV. The SUV at 1 h (clinical; bone metastases) was 10.4 SUV, the SUV at 1 h (clinical; distant lymph node metastases) was 14.5 SUV and the SUV at 1 h (clinical; liver metastases) was 14.3 SUV. The SUV at 1 h (clinical; regional lymph node metastases) was 10.1 SUV, the tissue uptake at 0.5 h (in vivo [5]) was 14 ± 0.47 %ID/g and the tissue uptake at 1 h (in vivo [5]) was 14.4 ± 0.67 %ID/g. The tissue uptake at 2 h (in vivo [5]) was 14.4 ± 0.68 %ID/g, the tissue uptake at 4 h (in vivo [5]) was 13.8 ± 0.68 %ID/g and the “blockade of tumor uptake” value ([6]; unlabeled DOTA-LM3) was 62%. For the same molecule, the “blockade of tumor uptake” value ([6]; unlabeled FAPI-46) was 63%, the “blockade of tumor uptake” value ([6]; unlabeled FAPI-46 plus DOTA-LM3) was 93% and the “binding to FAP or SSTR2 with corresponding unlabeled agent” value [7] was “significantly blocked”. For the same molecule, the “uptake in blood (ex vivo biodistribution)” value [8] was “high”.

In the case of “p-Cl-Phe-cyclo(D-Cys-Tyr-D-4-amino-Phe(carbamoyl)-Lys-Thr-Cys)D-Tyr-NH2 (disulfide) [LM3, SSTR2 antagonist peptide]”, the “binding affinity to SSTR2” value (SSTR2 [9]) is given as “high” and the internalization rate (SSTR2 [9]) is given as “low”.
